# Experimental data: patent US20120149636A1
# Assays:
# [1] = target: human growth hormone receptor on IM-9 cells (human) (UniProt P10912); assay: cell-based or functional assay
# [2] = target: T1, full length rat GHR (L43R) on BAF3 cells (rat) (UniProt P16310); assay: cell-based or functional assay
# T1 sequence (looked up): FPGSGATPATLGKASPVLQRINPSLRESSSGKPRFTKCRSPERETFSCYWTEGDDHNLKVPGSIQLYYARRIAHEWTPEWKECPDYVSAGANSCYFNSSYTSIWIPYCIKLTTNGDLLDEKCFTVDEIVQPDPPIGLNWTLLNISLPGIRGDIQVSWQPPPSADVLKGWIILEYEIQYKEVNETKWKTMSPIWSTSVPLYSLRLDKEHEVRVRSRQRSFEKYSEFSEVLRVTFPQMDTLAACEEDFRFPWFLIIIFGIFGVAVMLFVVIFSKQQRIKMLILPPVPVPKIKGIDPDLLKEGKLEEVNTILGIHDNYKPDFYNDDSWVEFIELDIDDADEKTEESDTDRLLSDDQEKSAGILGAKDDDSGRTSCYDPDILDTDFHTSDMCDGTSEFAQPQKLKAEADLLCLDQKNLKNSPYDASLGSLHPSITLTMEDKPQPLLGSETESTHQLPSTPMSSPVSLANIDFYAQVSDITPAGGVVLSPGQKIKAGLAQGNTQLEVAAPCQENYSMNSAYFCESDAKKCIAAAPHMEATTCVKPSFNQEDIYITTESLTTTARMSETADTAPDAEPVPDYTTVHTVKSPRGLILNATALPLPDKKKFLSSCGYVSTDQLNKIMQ
# UniProt P10912, sequence (P10912 19-638): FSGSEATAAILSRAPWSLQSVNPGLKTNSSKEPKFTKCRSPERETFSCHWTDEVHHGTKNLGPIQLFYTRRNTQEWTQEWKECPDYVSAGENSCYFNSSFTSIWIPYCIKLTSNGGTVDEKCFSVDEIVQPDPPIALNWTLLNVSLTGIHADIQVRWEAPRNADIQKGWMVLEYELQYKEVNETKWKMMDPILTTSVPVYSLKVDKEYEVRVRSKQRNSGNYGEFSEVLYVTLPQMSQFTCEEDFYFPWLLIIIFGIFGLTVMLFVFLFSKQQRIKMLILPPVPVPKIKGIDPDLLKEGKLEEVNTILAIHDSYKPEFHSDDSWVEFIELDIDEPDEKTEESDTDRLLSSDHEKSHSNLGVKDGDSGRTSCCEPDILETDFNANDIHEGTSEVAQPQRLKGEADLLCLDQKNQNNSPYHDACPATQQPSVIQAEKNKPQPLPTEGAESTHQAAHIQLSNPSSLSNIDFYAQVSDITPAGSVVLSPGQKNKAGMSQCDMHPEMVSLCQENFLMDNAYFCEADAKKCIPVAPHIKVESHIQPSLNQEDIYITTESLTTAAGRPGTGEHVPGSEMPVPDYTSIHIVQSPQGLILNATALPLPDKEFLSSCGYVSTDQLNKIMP
Substance,"pSTAT5 EC50 (IM-9), WHO hGH expressed as unity (relative, WHO hGH = 1 (head prints nM)) [1]","Proliferation EC50 (BrdU), WHO hGH expressed as unity (relative, WHO hGH = 1 (head prints nM)) [2]"
R134pAF-20KPEG (from UniProt P01241 27-217) (ligand),5.3,
Y143pAF-30KPEG (from UniProt P01241 27-217) (ligand),12.3,6.6
G131pAF-30KPEG (from UniProt P01241 27-217) (ligand),23.8,4.6
K145pAF-30KPEG (from UniProt P01241 27-217) (ligand),20.6,5.3
Y35pAF-40KPEG (from UniProt P01241 27-217) (ligand),53.3,24
